{"source": "patent US20260092103A1", "about": "(ALBERT EINSTEIN COLLEGE OF MEDICINE, published 2026)", "target": "Recombinant Mtb protein GroEL2 (Mycobacterium tuberculosis, UniProt P9WPE7 1-540)", "sequence (P9WPE7 whole entry)": "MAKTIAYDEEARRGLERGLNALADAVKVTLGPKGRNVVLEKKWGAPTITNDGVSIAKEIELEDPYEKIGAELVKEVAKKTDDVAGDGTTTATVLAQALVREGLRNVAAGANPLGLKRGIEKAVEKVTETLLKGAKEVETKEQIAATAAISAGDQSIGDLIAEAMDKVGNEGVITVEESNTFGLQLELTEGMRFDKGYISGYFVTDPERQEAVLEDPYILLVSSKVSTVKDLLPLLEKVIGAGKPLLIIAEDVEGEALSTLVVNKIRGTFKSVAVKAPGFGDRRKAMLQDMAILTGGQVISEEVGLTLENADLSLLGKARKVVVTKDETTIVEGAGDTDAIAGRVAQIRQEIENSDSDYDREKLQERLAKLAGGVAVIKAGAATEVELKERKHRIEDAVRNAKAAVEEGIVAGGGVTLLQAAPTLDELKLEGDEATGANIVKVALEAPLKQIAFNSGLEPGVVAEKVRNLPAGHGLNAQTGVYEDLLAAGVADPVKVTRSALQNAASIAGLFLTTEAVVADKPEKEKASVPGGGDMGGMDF", "data": [{"binder": "anti-GroEL2 antibody 103.11 (antibody, V domains shown) VH: not shown VL: QIVLTQSPAIMSASLGERVTMTCTASSSVSSSYLHWYRQKPGSSPKLWIYSASNLASGVPPRFSGSGSGTSYSLTISNMEAEDAATYYCHQYHRSPWTFGGGTKLEIKR", "values": [{"measurement": "EC50 (read off the curve)", "result": "~0.02", "unit": "µg/mL"}]}]}
